Here are results for three substances from PMC4306681.

In experiment [1] the target is Fc-tagged perlecan DI+II from WT CHO cells (UniProt P98160). The experiment can be described thus: radioligand binding; stable WT CHO cell lines expressing Fc or Fc-tagged proteins, binding of [I^125]labeled LDL (supplementary Fig. 3).
Experiment [2] concerns the target Fc-tagged perlecan DI from WT CHO cells (UniProt P98160). The experiment is described as above.
The target of experiment [3] is Fc-tagged WT perlecan DII from WT CHO cells (UniProt P98160). The description is as above.
Experiment [4] has as its target Fc-tagged secreted perlecan DII (sDII), as purified in Fig. 1D. The experiment can be described thus: in vitro saturation binding analysis; sDII 10.0 pM with increasing LDL (supplementary Fig. 1); further conditions not shown.
Experiment [5] has as its target sialidase C-treated Fc-tagged WT perlecan DII. The experiment can be described thus: pull-down; Fc-tagged proteins on protein-A agarose incubated with human LDL (10 μg in Fig. 1E/F with 500 ng protein; 1.5 μg in Fig. 5D); 20 mM HEPES pH 6.0, 10 mM NaCl, 1% BSA, room temperature 1 h; blot with anti-LDL or anti-ApoB antibody.
Experiment [6] has as its target Fc-tagged perlecan DI+II from WT CHO cells (UniProt P98160). The experiment can be described thus: pull-down; Fc-tagged proteins on protein-A agarose incubated with human ApoB-100 (5 μg); 20 mM HEPES pH 6.0, 10 mM NaCl, 1% BSA ('optimal binding condition'), room temperature 1 h; blot with anti-ApoB antibody, quantified from three experiments.
Experiment [7] deals with Fc-tagged WT perlecan DII from WT CHO cells (UniProt P98160). Described as above.

Sequence of human ApoB-100 (P04114 28-4563): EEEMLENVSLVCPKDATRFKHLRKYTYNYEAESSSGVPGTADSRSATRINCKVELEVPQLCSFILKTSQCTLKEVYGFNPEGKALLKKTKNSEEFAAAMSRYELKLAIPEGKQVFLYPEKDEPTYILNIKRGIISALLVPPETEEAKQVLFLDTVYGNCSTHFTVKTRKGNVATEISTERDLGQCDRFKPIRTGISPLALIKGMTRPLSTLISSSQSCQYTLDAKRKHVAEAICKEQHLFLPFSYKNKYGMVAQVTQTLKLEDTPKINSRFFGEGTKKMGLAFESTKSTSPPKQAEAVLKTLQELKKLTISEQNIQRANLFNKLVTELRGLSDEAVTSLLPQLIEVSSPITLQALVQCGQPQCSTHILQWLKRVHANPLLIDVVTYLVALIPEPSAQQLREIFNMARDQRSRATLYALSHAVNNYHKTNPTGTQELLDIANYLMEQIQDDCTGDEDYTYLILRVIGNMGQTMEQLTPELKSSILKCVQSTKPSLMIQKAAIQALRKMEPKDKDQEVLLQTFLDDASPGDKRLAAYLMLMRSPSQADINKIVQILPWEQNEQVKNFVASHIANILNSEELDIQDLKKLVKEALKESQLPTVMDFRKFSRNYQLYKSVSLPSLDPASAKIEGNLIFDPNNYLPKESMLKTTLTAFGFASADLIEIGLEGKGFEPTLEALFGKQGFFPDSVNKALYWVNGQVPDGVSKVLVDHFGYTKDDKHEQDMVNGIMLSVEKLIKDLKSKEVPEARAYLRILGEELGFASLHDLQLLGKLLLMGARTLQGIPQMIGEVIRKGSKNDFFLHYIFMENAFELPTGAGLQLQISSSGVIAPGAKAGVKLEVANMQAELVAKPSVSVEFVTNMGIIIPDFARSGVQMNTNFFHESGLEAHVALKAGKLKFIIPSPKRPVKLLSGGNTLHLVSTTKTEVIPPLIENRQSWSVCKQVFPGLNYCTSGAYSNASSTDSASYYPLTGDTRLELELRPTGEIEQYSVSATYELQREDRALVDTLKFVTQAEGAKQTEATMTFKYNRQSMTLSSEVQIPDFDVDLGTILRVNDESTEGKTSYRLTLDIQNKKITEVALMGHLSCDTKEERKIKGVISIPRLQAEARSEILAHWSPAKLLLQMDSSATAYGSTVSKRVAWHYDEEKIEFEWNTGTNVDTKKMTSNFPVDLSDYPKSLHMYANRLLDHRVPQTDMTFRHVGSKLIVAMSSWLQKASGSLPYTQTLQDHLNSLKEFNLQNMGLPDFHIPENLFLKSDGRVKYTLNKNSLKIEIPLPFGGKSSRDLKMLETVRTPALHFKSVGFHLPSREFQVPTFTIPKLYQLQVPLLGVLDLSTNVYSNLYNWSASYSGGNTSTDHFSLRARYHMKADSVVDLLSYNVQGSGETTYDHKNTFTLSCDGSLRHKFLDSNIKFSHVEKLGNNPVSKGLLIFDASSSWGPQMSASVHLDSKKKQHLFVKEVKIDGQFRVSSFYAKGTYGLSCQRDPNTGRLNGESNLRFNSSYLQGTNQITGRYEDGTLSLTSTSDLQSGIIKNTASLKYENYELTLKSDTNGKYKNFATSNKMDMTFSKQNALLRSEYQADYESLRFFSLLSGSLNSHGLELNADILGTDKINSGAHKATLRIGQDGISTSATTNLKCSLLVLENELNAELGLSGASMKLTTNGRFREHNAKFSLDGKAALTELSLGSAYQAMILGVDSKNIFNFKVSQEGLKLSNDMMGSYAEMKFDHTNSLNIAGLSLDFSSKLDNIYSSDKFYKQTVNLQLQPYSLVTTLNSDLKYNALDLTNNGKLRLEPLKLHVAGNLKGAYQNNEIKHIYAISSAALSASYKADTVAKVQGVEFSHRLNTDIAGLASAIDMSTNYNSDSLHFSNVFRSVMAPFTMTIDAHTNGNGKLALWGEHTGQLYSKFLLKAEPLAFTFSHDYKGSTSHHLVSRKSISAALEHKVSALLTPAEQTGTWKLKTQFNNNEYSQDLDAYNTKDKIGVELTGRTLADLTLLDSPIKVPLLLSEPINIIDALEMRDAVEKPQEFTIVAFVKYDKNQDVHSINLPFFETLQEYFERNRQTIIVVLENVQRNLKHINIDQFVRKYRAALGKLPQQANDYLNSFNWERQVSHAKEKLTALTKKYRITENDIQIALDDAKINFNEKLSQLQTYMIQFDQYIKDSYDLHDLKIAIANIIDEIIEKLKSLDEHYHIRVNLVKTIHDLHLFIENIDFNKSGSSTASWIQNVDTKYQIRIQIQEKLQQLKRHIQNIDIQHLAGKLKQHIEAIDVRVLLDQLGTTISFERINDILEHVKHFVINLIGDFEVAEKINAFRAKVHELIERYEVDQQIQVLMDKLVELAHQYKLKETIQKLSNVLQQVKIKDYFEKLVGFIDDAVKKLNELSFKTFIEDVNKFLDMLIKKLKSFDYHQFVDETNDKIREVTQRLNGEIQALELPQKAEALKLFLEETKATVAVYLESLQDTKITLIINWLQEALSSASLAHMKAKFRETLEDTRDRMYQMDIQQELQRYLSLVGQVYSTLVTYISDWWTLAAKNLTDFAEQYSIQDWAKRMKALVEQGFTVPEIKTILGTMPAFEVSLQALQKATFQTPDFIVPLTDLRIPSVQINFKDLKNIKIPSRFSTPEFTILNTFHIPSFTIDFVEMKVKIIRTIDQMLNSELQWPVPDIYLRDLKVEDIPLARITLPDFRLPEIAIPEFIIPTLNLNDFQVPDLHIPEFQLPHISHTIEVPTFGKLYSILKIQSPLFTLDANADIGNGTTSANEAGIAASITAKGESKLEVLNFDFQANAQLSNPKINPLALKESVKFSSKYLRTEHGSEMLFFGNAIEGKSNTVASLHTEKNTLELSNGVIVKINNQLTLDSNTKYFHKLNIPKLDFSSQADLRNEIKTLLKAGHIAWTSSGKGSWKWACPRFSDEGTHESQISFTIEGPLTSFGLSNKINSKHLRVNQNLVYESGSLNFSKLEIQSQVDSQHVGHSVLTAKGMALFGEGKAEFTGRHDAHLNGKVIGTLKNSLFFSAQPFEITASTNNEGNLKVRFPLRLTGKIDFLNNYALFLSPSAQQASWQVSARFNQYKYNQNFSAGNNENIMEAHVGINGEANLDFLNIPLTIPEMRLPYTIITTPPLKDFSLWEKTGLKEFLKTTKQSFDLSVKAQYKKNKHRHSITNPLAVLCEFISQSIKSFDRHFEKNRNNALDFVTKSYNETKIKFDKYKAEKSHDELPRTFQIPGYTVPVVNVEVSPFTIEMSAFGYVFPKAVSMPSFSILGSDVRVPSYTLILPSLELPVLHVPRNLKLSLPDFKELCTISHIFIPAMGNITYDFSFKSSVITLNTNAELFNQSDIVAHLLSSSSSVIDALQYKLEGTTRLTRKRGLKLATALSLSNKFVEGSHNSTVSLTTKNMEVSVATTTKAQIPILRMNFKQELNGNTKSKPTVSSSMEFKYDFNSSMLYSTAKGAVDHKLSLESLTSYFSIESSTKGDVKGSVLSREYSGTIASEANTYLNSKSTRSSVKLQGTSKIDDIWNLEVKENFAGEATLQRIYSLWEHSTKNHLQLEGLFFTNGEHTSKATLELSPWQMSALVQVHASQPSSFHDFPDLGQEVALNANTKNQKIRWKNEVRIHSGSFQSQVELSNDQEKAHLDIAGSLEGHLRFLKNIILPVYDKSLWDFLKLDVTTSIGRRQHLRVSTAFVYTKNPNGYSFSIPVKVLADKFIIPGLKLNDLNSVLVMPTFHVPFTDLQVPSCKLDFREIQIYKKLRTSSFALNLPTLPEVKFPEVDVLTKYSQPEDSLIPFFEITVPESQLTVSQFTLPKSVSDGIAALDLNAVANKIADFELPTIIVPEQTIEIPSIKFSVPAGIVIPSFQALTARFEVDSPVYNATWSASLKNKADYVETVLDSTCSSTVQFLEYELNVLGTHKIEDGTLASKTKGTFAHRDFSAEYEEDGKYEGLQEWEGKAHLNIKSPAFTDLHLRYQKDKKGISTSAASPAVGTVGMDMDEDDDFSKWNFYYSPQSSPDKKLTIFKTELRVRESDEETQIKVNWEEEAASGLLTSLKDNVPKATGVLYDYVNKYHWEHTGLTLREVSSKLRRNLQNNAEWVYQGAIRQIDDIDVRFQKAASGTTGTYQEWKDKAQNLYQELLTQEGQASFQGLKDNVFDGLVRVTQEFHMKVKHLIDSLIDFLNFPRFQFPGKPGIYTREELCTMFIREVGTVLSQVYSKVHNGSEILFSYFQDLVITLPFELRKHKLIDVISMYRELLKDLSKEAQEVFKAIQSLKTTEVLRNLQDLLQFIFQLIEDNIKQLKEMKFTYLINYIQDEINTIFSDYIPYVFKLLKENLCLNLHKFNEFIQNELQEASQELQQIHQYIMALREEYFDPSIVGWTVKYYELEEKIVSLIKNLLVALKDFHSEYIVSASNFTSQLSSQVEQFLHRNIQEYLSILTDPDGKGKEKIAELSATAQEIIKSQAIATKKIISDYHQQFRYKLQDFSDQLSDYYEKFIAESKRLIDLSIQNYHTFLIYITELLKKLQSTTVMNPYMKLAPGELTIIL

Consider [I^125]labeled LDL (complex), for which the percent increase of [I^125]LDL binding to cells is 43% in experiment [1], 26% in experiment [2] and 31% in experiment [3].
In experiment [4], human LDL (complex) yielded an LDL concentration at which binding to sDII (10.0 pM) became saturated of 16.3 pM. The substance also had a percent reduction of binding against mock-treated WT DII in experiment [5] of 50%.
In experiment [6], “human ApoB-100 (from UniProt P04114 28-4563) (natural protein)” gave a percent increase of binding over DI alone of 90% and a percent increase of binding over WT DII of 53%. In experiment [7], this substance gave a percent increase of binding over WT DI of 24%.
